The target in the experiment is SoP450 from Shimazuella soli (CPR-containing self-sufficient cytochrome P450, homologue of P450BM3) (Shimazuella soli). Description: SEC.

A word on the stoichiometry N: it is a count of units in the complex or per binding partner.

As for “SoP450 from Shimazuella soli (CPR-containing self-sufficient cytochrome P450, homologue of P450BM3) (enzyme)”, the stoichiometry N came out at 2.

For the origin of these results see paper doi:10.1101/2025.11.29.689641.
